Experimental data taken from patent US20250277208A1, “Method of Peptide Library Construction and Peptides Thereof” (Alcamena Stem Cell Therapeutics, LLC, priority 2024, published 2025).
Read-outs that look alike come from different tables or passages of the source. Each block holds one molecule with its values, some of them ahead of it.

Tests used:
IL-6 signaling = IL-6 signaling (Homo sapiens, UniProt P05231); test: IL-6 Bioassay (Promega), luciferase reporter cells, inhibition of IL-6-induced cell signaling; type: cell-based; conditions: peptides incubated with IL-6 for 10 min, IL-6 0.5 nM, cells 6 hours
Protocol: To verify the ability of the peptides of the invention to inhibit IL-6-signaling, they were tested with the IL-6 Bioassay Kit (Promega). This kit includes human cells engineered to express the IL-6 receptor and a luciferase reporter driven by a response element. When IL-6 binds, the IL-6R transduces intracellular signals resulting in luminescence (fluorescence). Inhibition of IL-6 interaction with the receptor leads to the decrease of the luciferase expression and lower fluorescence.
The selected peptides were incubated with IL-6 for 10 min before being added to cell culture medium. […] Peptides 27 (2), 38 (2) and 45 (2) were also tested.
The ability of peptides to inhibit IL-6 signaling pathway was tested with the IL-6 Bioassay from Promega (cat #JA2501). The bioluminescent signal is detected and quantified using Bio-Glo™ Luciferase Assay System. Different concentrations of the test peptides were mixed with IL-6 (0.5 nM) and added to the IL-6 Bioassay Cells according to the manufacturer's instructions. Cells were incubated for 6 hours in a humidified incubator at 37° C. and 5% CO2 concentration. Following incubation, 75 microliters of the Bio-Glo™ Reagent was added to the cell culture and the luminescence was measured with a Biotek Synergy HTX plate reader. Data was analyzed according to manufacturer's recommendations.

IL-6 = biological target: T1, IL-6 (Homo sapiens, UniProt P05231); test: Biacore surface plasmon resonance binding of peptides to immobilised IL-6; conditions: Table 2, mutation combinations; N terminus acetylated, C terminus amidated; nd = not detected; read-out: KD (nM) P < 0.05
T1 construct: purchased R&D Systems BT7270B
Source text: Two DNA fragments were amplified from a synthetic fragment of the IL-6R. The 5′ fragment was amplified with forward primer and a mixture of 432 reverse primers, each containing an overhang of 6 codons. The 3′ fragment was amplified with a mixture of 432 forward primers, also containing overhangs of six degenerate codons and the reverse primer. Either the first or the second nucleotide of each codon was replaced with a degenerate base. Following PCR amplification, DNA fragments were phosphorylated and ligated leading to various sequence rearrangements shown at the bottom of the FIG. 3. Four hundred thirty-two forward and reverse oligos with an overhang of 6 codons from the IL-6R binding domain were used for PCR. A degenerate nucleotide was inserted at the first or second position of each codon. When ligated, these sequences generated a library of 1×10^13 different DNA sequences. The library of DNA sequences was taken through eight rounds of mRNA Display generating a peptide library. Eighteen of the most abundant peptides in the peptide library were synthesized in a linear form and tested for binding to IL-6 using Biacore. One of the peptides (#9) (“Peptide 9”) from the peptide library, with the sequence of […] The twelve non-terminal residues represent the PepFusion library-derived DNA sequences, while N-terminal serine and C-terminal glycine come from the flanking linkers and were kept as a precaution, in case linker sequences contributed to peptide interaction with its target.
Binding reactions were performed in HBS-P/2% DMSO buffer (10 mM Hepes, pH 7.4, 150 mM NaCl, 0.05% P-20, 2% DMSO), which was filtered through […] filters and degassed before use. Biotinylated recombinant human IL-6 (IL-6-Biotin) was bound to the surface of a Biacore SA sensor chip of a Biacore T200 surface plasmon resonance unit as follows. The streptavidin surface of the chip (flow cells 1 and 2) was activated by injecting 20 μl of 1 M NaCl/50 mM NaOH at 20 μl/min, in 3 pulses. Biotinylated Recombinant Human IL6 was diluted with HBS-P buffer and an aliquot of 100 μl (2 micrograms/ml) was injected into flow cell 2 at 5 microliters/min to yield a signal of 1400 response units (RU) (10 microliters were injected). Any remaining activated residues on the streptavidin surface of flow cells 1 and 2 were blocked with 30 microliters 500 nM free Biotin.
(§1) Affinity scouting assay was performed at a flow rate of 30 microliters/min at 25° C. The analyte (60 microliter aliquots of peptides, at concentrations of 20 μM in HBS-P/2% DMSO buffer) was injected into flow cells 1 and 2 and the association reaction was recorded. The surface was then washed with HBS-P/2% DMSO for 3 min and the dissociation of the analyte from the bound IL6 was followed over time. The surfaces of the flow cells were regenerated with 30 microliters of 10 mM NaOH, followed 50 microliters of HBS-P/2% DMSO buffer.
as §1, with “Kinetics analysis of binding was performed” for “Affinity scouting assay was performed”, “concentrations of 0, 1.25 μM, 2.5 μM, 5 μM, 10 μM and 20 μM” for “concentrations of 20 μM”, “DMSO buffer. Sensorgrams were analyzed using BIAeveluation 3.2.1 software (Cytiva). Values from the reference flow cell were subtracted to obtain the values for specific binding. Data were globally fitted to the Langmuir model for a 1:1 mass transfer binding.” for “DMSO buffer.”

[1] = biological target: T2, Biotinylated recombinant human IL-6 (human, UniProt P05231 30-212, biotinylated (sites not given)); test: cell-based or functional assay
[2] = biological target: T2, Biotinylated recombinant human IL-6; test: SPR (Biacore), IL-6 on chip
[3] = biological target: T2, Biotinylated recombinant human IL-6; test: SPR (Biacore), IL-6 on chip; remark: listed apart in the source

Sequence of IL-6 signaling (P05231 30-212): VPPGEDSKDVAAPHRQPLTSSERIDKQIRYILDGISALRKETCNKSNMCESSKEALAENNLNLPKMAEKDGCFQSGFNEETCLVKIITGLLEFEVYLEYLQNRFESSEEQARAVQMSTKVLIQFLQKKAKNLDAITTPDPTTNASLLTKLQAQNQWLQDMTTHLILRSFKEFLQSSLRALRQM

Molecule: Ac-SVRDLLRRMCHIVG-NH2 [9(2), SVRDLLRRMCHIVG]
IC50 (IL-6 signaling): 85 nM

Molecule: Ac-SVRDLLRRMKVCVG-NH2 [27(2), SVRDLLRRMKVCVG]
IC50 (IL-6 signaling): 580 nM
Kd (IL-6): 580 ± 156 nM

B3: Peptide 9 (2) (peptide)
peptide: Ac-SVRDLLRRMCHIVG-NH2
notes: peptide 9 with protected termini
IC50, inhibition of IL-6-induced cell signaling (IL-6 Bioassay, luciferase reporter cells) [1]: 85.4 nM
Kd [2]: 354 nM
Kd [3]: 300 nM

The next lines start with the values.

IC50 (IL-6 signaling): 16800 nM
Molecule: Ac-TIRDLIRMMKVCVG-NH2 [Peptide 100, TIRDLIRMMKVCVG]

IC50, inhibition of IL-6-induced cell signaling (IL-6 Bioassay, luciferase reporter cells) [1]: 16800 nM
Kd [2]: 59 nM
Kd [3]: 50 nM
B1: Peptide 100 (peptide)
peptide: Ac-TIRDLIRMMKVCVG-NH2

IC50, inhibition of IL-6-induced cell signaling (IL-6 Bioassay, luciferase reporter cells) [1]: 1200 nM
Kd [2]: 42 nM
Kd [3]: 30 nM
B2: Peptide 90 (peptide)
peptide: Ac-SFRDLIRMMKVCVG-NH2
